Columns and labels:
[1] = molecular target: NLS-conjugated polymersome nanocarriers (bipartite nucleoplasmin NLS peptide on PMOXA-PDMS-PMOXA polymersomes); experiment: dual-color fluorescence lifetime cross-correlation spectroscopy
[2] = molecular target: Cysteine-tagged FG domain of human Nup153 (human); experiment: SPR

Kd [1]: < 0.4 nM
Kd [2]: 24.8 nM
Substance: Kapα•Kapβ1 (from UniProt P52292;Q14974) (complex)

Source: paper PMC7022206
